The results in this text go back to publication PMC6077149 (Molecular Therapy. Methods & Clinical Development, 2018).

Data set [1] deals with Fc (huIgG1-Fc fused to the Avi tag) (human). The experiment in a line: SEC. A general note: Size exclusion chromatography separates by hydrodynamic size, large species first.
The data set “SEC” deals with the molecule itself. The data set is described as follows: SEC.
Data set [2] addresses DARPin 2B7 fused to the measles virus H protein (DARPin-H). The data set is described as follows: flow cytometry on cells. Background: A flow cytometer gives signals particle by particle.
In data set [3] the target is DARPin SB4 fused to the measles virus H protein (DARPin-H). The data set is described as follows: flow cytometry on cells.
The target of data set [4] is four DARPins (SD8, SK14, 2K19, 2B7) and the scFv Fab7. The experiment in a line: flow cytometry on cells.

Broadly, the stoichiometry N is the number of molecules, sites or subunits per partner or assembly. In data set [1], “Fc (huIgG1-Fc fused to the Avi tag) (domain or fragment)” displayed a stoichiometry N of 2.

B1: GluA4-Fc (amino-terminal domain of GluA4 fused to huIgG1-Fc and an Avi tag) (Fc fusion)
chain: AFPSSVQIGGLFIRNTDQEYTAFRLAIFLHNTSPNASEAPFNLVPHVDNIETANSFAVTNAFCSQYSRGVFAIFGLYDKRSVHTLTSFCSALHISLITPSFPTEGESQFVLQLRPSLRGALLSLLDHYEWNCFVFLYDTDRGYSILQAIMEKAGQNGWHVSAICVENFNDVSYRQLLEELDRRQEKKFVIDCEIERLQNILEQIVSVGKHVKGYHYIIANLGFKDISLERFIHGGANVTGFQLVDFNTPMVTKLMDRWKKLDQREYPGSETPPKYTSALTYDGVLVMAETFRSLRRQKIDISRRGNAGDCLANPAAPWGQGIDMERTLKQVRIQGLTGNVQFDHYGRRVNYTMDVFELKSTGPRKVGYWNDMDKLVLIQD
modifications: biotin on the Avi tag in the biotinylated form (roughly 76% biotinylated)
For orientation: Kd means the constant that tells how readily two partners part at equilibrium. Higher therefore signals weaker binding. B1: the “stoichiometry N” value in “SEC” came out at 4. The dissociation constant (Kd) in data set [2] is 8.4 nM; in data set [3], 19 nM; in data set [4] it was 1.6 to 3.7 nM.
